Values of other authors as cited in PMC6525395.

Target: IL-6Rα (Homo sapiens) (UniProt P08887)
Sequence of UniProt P08887 (P08887 20-355): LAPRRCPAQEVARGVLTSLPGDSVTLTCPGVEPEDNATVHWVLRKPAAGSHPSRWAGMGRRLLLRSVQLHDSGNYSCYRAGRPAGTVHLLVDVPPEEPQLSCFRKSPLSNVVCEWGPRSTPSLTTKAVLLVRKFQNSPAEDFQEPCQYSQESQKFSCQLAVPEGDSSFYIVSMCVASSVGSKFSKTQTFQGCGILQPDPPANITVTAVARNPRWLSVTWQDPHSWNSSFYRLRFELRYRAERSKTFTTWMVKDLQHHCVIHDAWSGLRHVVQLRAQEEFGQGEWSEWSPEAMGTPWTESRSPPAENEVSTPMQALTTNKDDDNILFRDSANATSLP

For IL-6 (from UniProt P05231), the Kd is given as 0.5 nM.
